Tests used:
[1] = biological target: mMH1_02TE, H1 hemagglutinin ectodomain (A/Hawaii/70/2019) with cleavable foldon and histidine tag (influenza A virus A/Hawaii/70/2019 (H1) | not stated); assay: SEC-MALS
[2] = biological target: mMH3_02TE, H3 hemagglutinin ectodomain (A/Hong Kong/45/2019) with cleavable foldon and histidine tag (influenza A virus A/Hong Kong/45/2019 (H3) | not stated); assay: SEC-MALS

| Substance | stoichiometry N [1] | stoichiometry N [2] |
| --- | --- | --- |
| mMH1_02TE, H1 hemagglutinin ectodomain (A/Hawaii/70/2019) with cleavable foldon and histidine tag (domain or fragment) | 3 | – |
| mMH3_02TE, H3 hemagglutinin ectodomain (A/Hong Kong/45/2019) with cleavable foldon and histidine tag (domain or fragment) | – | 3 |
